± gives the uncertainty stated by the source.
Experiment: self-splicing fitness, log relative to wild type (ln ratio); higher = more splicing; Tetrahymena group I intron in knt gene, E. coli kanamycin selection, DiMSum; sequences stand for … in CUCUCU…GGAGGGAAAAGUUAUCAGGCAUGCACCUGGUAGCUAGUCUUUAAACCAAUAGAUUGCAUCGGUUUAAAAGGCAAGACCGUCAAAUUGCGGGAAAGGGGUCAACAGCCGUUCAGUACCAAGUCUCAGGGGAAACUUUGAGAUGGCCUUGCAAAGGGUAUGGUAAUAAGCUGACGGACAUGGUCCUAACCACGCAGCCAAGUCCUAAGUCAACAGAUCUUCUGUUGAUAUGGAUGCAGUUCACAGACUAAAUGUCGGUCGGGGAAGAUGUAUUCUUCUCAUAAGAUAUAGUCGGACCUCUCCUUAAUGGGAGCUAGCGGAUGAAGUGAUGCAACACUGGAGCCGCUGGGAACUAAUUUGUAUGCGAAAGUAUAUUGAUUAGUUUUGGAGUACUCGUGGUCG
Method in brief: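 DiMSum derived fitness as the error-weighted combination of fold changes across replicates, kanamycin versus no kanamycin, normalised to wild type. E. coli BL21(DE3) held the library, which randomised all eight P1ex-region intron nucleotides within the knt kanamycin-resistance gene on pET-22b(+). Six replicate transformations grew overnight at 37°C or 30°C on LB agar with or without 25 μg/mL kanamycin, also containing 100 μg/mL carbenicillin, 50 μM IPTG and 0.2% rhamnose, and pooled colonies were amplicon-sequenced on an Illumina HiSeq 2500.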

Row | Sequence | self-splicing fitness (ln) (30 °C) | self-splicing fitness (ln) (37 °C)
1 | UUGAAGCAAUAUUACGGACU | 0.0826 ± 0.16 | 0.0377 ± 0.12
2 | UUGAAGCAAUAUUACGGCGU | -0.215 ± 0.11 | 0.00688 ± 0.13
3 | UUGAAGCAAUAUUACGUCGU | -1.04 ± 0.074 | -0.397 ± 0.11
4 | UUGAAGCAAUAUUACGUGUA | -1.7 ± 0.053 | -1.25 ± 0.074
5 | UUGCAGCAAUAUUACGAUGU | -3.3 ± 0.16 | -3.09 ± 0.3
6 | UUGCAGCAAUAUUACGAUUU | -2.64 ± 0.14 | -1.22 ± 0.13
7 | UUGCAGCAAUAUUACGCAAU | -3.95 ± 0.42 | -1.86 ± 0.14
8 | UUGCAGCAAUAUUACGCCCG | -0.555 ± 0.18 | -1.07 ± 0.18
9 | UUGCAGCAAUAUUACGCGCC | -2.28 ± 0.44 | –
10 | UUGCAGCAAUAUUACGCGGG | -4.61 ± 0.39 | -2.03 ± 0.21
11 | UUGCAGCAAUAUUACGCUGC | -3.93 ± 0.29 | -2.97 ± 0.38
12 | UUGCAGCAAUAUUACGCUUU | -2.64 ± 0.12 | -2.11 ± 0.15
13 | UUGCAGCAAUAUUACGGACC | -2.34 ± 0.27 | -2 ± 0.26
14 | UUGCAGCAAUAUUACGGCCU | -1.03 ± 0.095 | -0.864 ± 0.18
15 | UUGCAGCAAUAUUACGGUAU | -1.86 ± 0.11 | -1.63 ± 0.14
16 | UUGCAGCAAUAUUACGGUGU | -4.16 ± 0.21 | -2.72 ± 0.18
17 | UUGCAGCAAUAUUACGUAUC | -3.83 ± 0.16 | -2.4 ± 0.15
18 | UUGCAGCAAUAUUACGUAUU | -2.57 ± 0.14 | -1.43 ± 0.15
19 | UUGCAGCAAUAUUACGUCGC | -3.09 ± 0.28 | -2.16 ± 0.35
20 | UUGCAGCAAUAUUACGUCGG | -0.191 ± 0.089 | -0.117 ± 0.11
21 | UUGCAGCAAUAUUACGUGAG | -0.139 ± 0.078 | -0.302 ± 0.099
22 | UUGCAGCAAUAUUACGUGGU | -2.14 ± 0.16 | -2.76 ± 0.28
23 | UUGCAGCAAUAUUACGUUUC | -3.59 ± 0.27 | -3.17 ± 0.34
24 | UUGGAGCAAUAUUACGACAG | -1.57 ± 0.15 | -1.23 ± 0.18
25 | UUGGAGCAAUAUUACGACCA | -3.12 ± 0.48 | -1.34 ± 0.35

Row | Sequence | self-splicing fitness (ln) (30 °C) | self-splicing fitness (ln) (37 °C)
26 | UUGGAGCAAUAUUACGAGUA | – | -2.45 ± 0.48
27 | UUGGAGCAAUAUUACGAUAU | – | -2.49 ± 0.32
28 | UUGGAGCAAUAUUACGCAUU | -1.87 ± 0.33 | –
29 | UUGGAGCAAUAUUACGCUCA | -1.16 ± 0.15 | -1.53 ± 0.24
30 | UUGGAGCAAUAUUACGGACC | – | -2.55 ± 0.33
31 | UUGGAGCAAUAUUACGGACG | -3.11 ± 0.32 | -1.04 ± 0.34
32 | UUGGAGCAAUAUUACGGCUA | -1.23 ± 0.26 | -1.21 ± 0.41
33 | UUGGAGCAAUAUUACGGCUU | -1.18 ± 0.46 | -2.15 ± 0.48
34 | UUGGAGCAAUAUUACGGGCC | – | -1.33 ± 0.42
35 | UUGGAGCAAUAUUACGGGGC | -3.04 ± 0.28 | -3.26 ± 0.47
36 | UUGGAGCAAUAUUACGGGGU | -4.02 ± 0.4 | -2.44 ± 0.33
37 | UUGGAGCAAUAUUACGGUUC | -2.38 ± 0.2 | -2.86 ± 0.3
38 | UUGGAGCAAUAUUACGUAAA | -2.9 ± 0.29 | -0.99 ± 0.25
39 | UUGGAGCAAUAUUACGUACA | – | 0.204 ± 0.28
40 | UUGGAGCAAUAUUACGUCAA | -2.19 ± 0.25 | -0.538 ± 0.19
41 | UUGGAGCAAUAUUACGUGUG | -3.71 ± 0.2 | -2.38 ± 0.14
42 | UUGGAGCAAUAUUACGUUAA | -2.09 ± 0.25 | -1.91 ± 0.25
43 | UUGGAGCAAUAUUACGUUCA | -2.45 ± 0.4 | -1 ± 0.31
44 | UUGGAGCAAUAUUACGUUGA | -3.57 ± 0.3 | -0.895 ± 0.26
45 | UUGGAGCAAUAUUACGUUGC | – | -1.44 ± 0.45
46 | UUGUAGCAAUAUUACGACCA | -0.463 ± 0.16 | -0.51 ± 0.17
47 | UUGUAGCAAUAUUACGAGGC | -3.07 ± 0.27 | -1.77 ± 0.31
48 | UUGUAGCAAUAUUACGAGUU | -3.22 ± 0.25 | -2.61 ± 0.26
49 | UUGUAGCAAUAUUACGCCCA | 0.762 ± 0.34 | -0.0943 ± 0.38
50 | UUGUAGCAAUAUUACGCGUA | -1.31 ± 0.18 | -0.742 ± 0.22

Row | Sequence | self-splicing fitness (ln) (30 °C) | self-splicing fitness (ln) (37 °C)
51 | UUGUAGCAAUAUUACGCGUG | -0.196 ± 0.079 | -0.498 ± 0.1
52 | UUGUAGCAAUAUUACGGAUU | – | -2 ± 0.34
53 | UUGUAGCAAUAUUACGGCAU | -0.835 ± 0.096 | 0.641 ± 0.11
54 | UUGUAGCAAUAUUACGGCCA | -0.782 ± 0.2 | 0.581 ± 0.28
55 | UUGUAGCAAUAUUACGGCUU | -1.41 ± 0.12 | 0.113 ± 0.14
56 | UUGUAGCAAUAUUACGGGAC | -0.759 ± 0.16 | -2.7 ± 0.36
57 | UUGUAGCAAUAUUACGGGGC | -3.56 ± 0.37 | -3.67 ± 0.46
58 | UUGUAGCAAUAUUACGUCCA | -0.4 ± 0.13 | -0.28 ± 0.14
59 | UUGUAGCAAUAUUACGUUCU | -2.42 ± 0.15 | -1.69 ± 0.2
60 | UUGUAGCAAUAUUACGUUGG | -2.77 ± 0.18 | -1.98 ± 0.21
61 | UUUAAGCAAUAUUACGAAAU | -2.95 ± 0.24 | -1.04 ± 0.19
62 | UUUAAGCAAUAUUACGAACG | -1.08 ± 0.18 | 0.0714 ± 0.21
63 | UUUAAGCAAUAUUACGAAGU | – | -1.62 ± 0.45
64 | UUUAAGCAAUAUUACGAAUA | -1.09 ± 0.21 | -0.334 ± 0.22
65 | UUUAAGCAAUAUUACGACAU | -1.45 ± 0.015 | -0.621 ± 0.034
66 | UUUAAGCAAUAUUACGACGC | -3.48 ± 0.2 | -0.476 ± 0.16
67 | UUUAAGCAAUAUUACGAGGG | -2.32 ± 0.19 | -1.57 ± 0.23
68 | UUUAAGCAAUAUUACGCACG | -0.565 ± 0.16 | -0.685 ± 0.22
69 | UUUAAGCAAUAUUACGCAUU | -2.05 ± 0.17 | -2.63 ± 0.24
70 | UUUAAGCAAUAUUACGCUCG | -0.577 ± 0.095 | 0.0454 ± 0.11
71 | UUUAAGCAAUAUUACGGGCA | -1.05 ± 0.12 | -0.851 ± 0.14
72 | UUUAAGCAAUAUUACGGGUG | -1.2 ± 0.13 | -0.234 ± 0.12
73 | UUUAAGCAAUAUUACGGUAA | -1.08 ± 0.12 | -1.01 ± 0.096
74 | UUUAAGCAAUAUUACGGUAG | -0.741 ± 0.17 | -0.971 ± 0.21
75 | UUUAAGCAAUAUUACGGUUA | -1.35 ± 0.12 | -0.505 ± 0.1

Row | Sequence | self-splicing fitness (ln) (30 °C) | self-splicing fitness (ln) (37 °C)
76 | UUUAAGCAAUAUUACGUAAA | -0.434 ± 0.1 | 0.519 ± 0.16
77 | UUUAAGCAAUAUUACGUCGA | -0.771 ± 0.092 | -0.225 ± 0.1
78 | UUUAAGCAAUAUUACGUCUA | -0.606 ± 0.085 | -0.214 ± 0.1
79 | UUUAAGCAAUAUUACGUGCC | -1.95 ± 0.21 | -0.891 ± 0.22
80 | UUUAAGCAAUAUUACGUUAU | -3.18 ± 0.2 | -2.16 ± 0.22
81 | UUUAAGCAAUAUUACGUUUG | -2.96 ± 0.19 | -1.42 ± 0.13
82 | UUUCAGCAAUAUUACGAAUA | -0.788 ± 0.15 | 0.446 ± 0.13
83 | UUUCAGCAAUAUUACGACAG | -0.245 ± 0.089 | 0.886 ± 0.15
84 | UUUCAGCAAUAUUACGACGC | -2.68 ± 0.24 | -1.67 ± 0.19
85 | UUUCAGCAAUAUUACGAUUC | – | -1.37 ± 0.41
86 | UUUCAGCAAUAUUACGCAAU | -2.36 ± 0.21 | -0.692 ± 0.23
87 | UUUCAGCAAUAUUACGCCAG | -1.4 ± 0.31 | -0.498 ± 0.24
88 | UUUCAGCAAUAUUACGCCGG | -0.905 ± 0.17 | -1.68 ± 0.25
89 | UUUCAGCAAUAUUACGCCUA | -0.129 ± 0.066 | 0.414 ± 0.078
90 | UUUCAGCAAUAUUACGGCGC | -1.11 ± 0.11 | -1.58 ± 0.16
91 | UUUCAGCAAUAUUACGGUCC | -2.8 ± 0.37 | -0.245 ± 0.35
92 | UUUCAGCAAUAUUACGUACA | -0.836 ± 0.11 | -0.465 ± 0.11
93 | UUUCAGCAAUAUUACGUAUG | -0.689 ± 0.081 | -0.635 ± 0.11
94 | UUUCAGCAAUAUUACGUUUC | – | -2.28 ± 0.29
95 | UUUGAGCAAUAUUACGAAAA | -2.31 ± 0.28 | -1.21 ± 0.24
96 | UUUGAGCAAUAUUACGACGA | -0.573 ± 0.15 | 0.211 ± 0.18
97 | UUUGAGCAAUAUUACGACUA | -1.98 ± 0.27 | -1.32 ± 0.28
98 | UUUGAGCAAUAUUACGAGAA | – | -2.17 ± 0.46
99 | UUUGAGCAAUAUUACGAGCA | – | -1.53 ± 0.43
100 | UUUGAGCAAUAUUACGAUAU | – | -0.926 ± 0.24
